PMC4897640, “Functional diversity of family 3 β-glucosidases from thermophilic cellulolytic fungus Humicola insolens Y1” (Scientific Reports, 2016)
Residue numbers refer to the chain shown, from its start. Names and notes keep the numbering of the source. Blank lines part the entries; values can stand above or below the molecule they belong to.

Tests used:
HiBgl3B = biological target: T1, HiBgl3B (Mycothermus thermophilus, UniProt A0A191KCR2); experiment: pNPG hydrolysis, Dixon plot; assay type: biochemical; conditions: read-out: Ki (mM) / pNPG; substrate pNPG 0.75 and 1 mM, glucose 5-50 mM; product inhibition, mode not stated
T1 construct: GenBank printed as KT203372, same as Hibgl3C, so probably a misprint of KT203371
T1 sequence (A0A191KCR2 entry or part of it): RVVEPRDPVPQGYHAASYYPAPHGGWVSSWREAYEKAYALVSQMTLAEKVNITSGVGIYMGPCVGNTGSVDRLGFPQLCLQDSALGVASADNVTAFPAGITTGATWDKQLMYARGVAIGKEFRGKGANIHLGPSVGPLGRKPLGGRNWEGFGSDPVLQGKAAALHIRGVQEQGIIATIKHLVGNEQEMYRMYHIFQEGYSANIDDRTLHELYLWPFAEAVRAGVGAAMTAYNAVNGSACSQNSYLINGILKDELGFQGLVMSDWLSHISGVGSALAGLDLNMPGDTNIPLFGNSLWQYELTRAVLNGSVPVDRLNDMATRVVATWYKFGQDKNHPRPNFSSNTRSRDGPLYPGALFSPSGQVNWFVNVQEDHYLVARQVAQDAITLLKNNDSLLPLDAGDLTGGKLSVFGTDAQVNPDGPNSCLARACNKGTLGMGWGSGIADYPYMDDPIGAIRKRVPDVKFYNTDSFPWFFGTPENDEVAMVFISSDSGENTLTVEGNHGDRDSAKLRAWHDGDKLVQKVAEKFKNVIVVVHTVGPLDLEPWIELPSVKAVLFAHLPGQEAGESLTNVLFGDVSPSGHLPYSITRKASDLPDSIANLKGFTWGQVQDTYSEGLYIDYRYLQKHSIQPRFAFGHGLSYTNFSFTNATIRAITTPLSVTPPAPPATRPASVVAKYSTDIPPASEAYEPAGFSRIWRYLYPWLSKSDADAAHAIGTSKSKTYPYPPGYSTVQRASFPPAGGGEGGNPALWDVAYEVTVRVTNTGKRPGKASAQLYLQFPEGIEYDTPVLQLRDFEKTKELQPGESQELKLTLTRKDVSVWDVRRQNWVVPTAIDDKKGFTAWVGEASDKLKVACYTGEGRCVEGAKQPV

HiBgl3A = HiBgl3A (Mycothermus thermophilus, UniProt A0A191KCR1); experiment: pNPG hydrolysis, Dixon plot; assay type: biochemical; conditions: read-out: Ki (mM) / pNPG; substrate pNPG 0.75 and 1 mM, glucose 5-50 mM; product inhibition, mode not stated
HiBgl3C = biological target: T2, HiBgl3C (Mycothermus thermophilus, UniProt A0A191KCR0); experiment: pNPG hydrolysis, Dixon plot; assay type: biochemical; conditions: read-out: Ki (mM) / pNPG; substrate pNPG 0.75 and 1 mM, glucose 5-50 mM; product inhibition, mode not stated
T2 construct: the same GenBank number is also printed for Hibgl3B
T2 sequence (A0A191KCR0 18-733): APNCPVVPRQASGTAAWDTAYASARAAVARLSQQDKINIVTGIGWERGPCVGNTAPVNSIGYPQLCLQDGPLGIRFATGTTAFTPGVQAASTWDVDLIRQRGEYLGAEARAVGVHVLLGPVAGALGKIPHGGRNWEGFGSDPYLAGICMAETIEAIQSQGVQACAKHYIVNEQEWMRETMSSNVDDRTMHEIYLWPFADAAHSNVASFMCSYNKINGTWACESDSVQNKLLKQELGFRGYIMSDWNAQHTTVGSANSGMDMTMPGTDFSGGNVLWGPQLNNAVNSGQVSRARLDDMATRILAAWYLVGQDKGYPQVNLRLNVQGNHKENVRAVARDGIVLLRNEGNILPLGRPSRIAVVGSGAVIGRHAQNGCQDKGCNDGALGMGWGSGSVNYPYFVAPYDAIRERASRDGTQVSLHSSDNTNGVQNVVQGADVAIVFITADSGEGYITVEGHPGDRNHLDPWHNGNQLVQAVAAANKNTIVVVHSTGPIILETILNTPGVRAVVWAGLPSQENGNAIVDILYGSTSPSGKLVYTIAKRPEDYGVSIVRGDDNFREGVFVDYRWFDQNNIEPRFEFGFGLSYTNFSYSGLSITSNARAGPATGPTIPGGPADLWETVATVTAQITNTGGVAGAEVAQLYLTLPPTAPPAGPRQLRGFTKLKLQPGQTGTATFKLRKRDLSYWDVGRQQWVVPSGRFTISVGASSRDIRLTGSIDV

purified protein = substrate: O=[N+]([O-])c1ccc(O[C@@H]2O[C@H](CO)[C@@H](O)[C@H](O)[C@H]2O)cc1; experiment: purified protein; conditions: 100 mM Na2HPO4-citric acid
[1] = optimal conditions (pH 6.0, 50 °C), pH 6.0, 50.0 °C
[2] = optimal conditions (pH 5.5, 55 °C in table; 60 °C in text), pH 5.5

Ki (HiBgl3B): 55.2 mM | Ki (HiBgl3A): 25 mM | Ki (HiBgl3C): 37.1 mM
Molecule: OC[C@H]1OC(O)[C@H](O)[C@@H](O)[C@@H]1O (stereo partly drawn) [glucose]

B1: HiBgl3A (Mycothermus thermophilus) (protein)
chain: NRHRQVIGRNHLNHHHRSQRELAYSPPSYPSPWMDPKAAEWQNAYAKAKAFVSKLTLLEKVNLTTGVGWASEQCVGNTGSVPRLGLRGLCLHDSPLGIRGSDYNSAFPSGQTTAATFDRILMYRRGYAMGKEAKGKGINVLLGPVAGPLGRMPAAGRNWEGFSPDPVLTGVGMAETIKGIQDAGVVACAKHLIGNEQEHFRQAGEDYGFNITEALSSNIDDKTMHELYLWPFVDAVRAGVGSVMCAYTQVNNSYSCQNSYLLNYLLKNELGFQGFVMSDWQAQHAGVSAAVAGLDMSMPGDTTFNTGVSFWGANLTLAVLNGTVPRYRIDDMAMRIMAAFFKVHPDIHLDPVNFSFWTRQTYGPLHWRAGDGYQQVNFHVDVREDHHLLIREIAAKGTVLLKNTGGLPLKKPKFIAVIGDDAGPNPNGPNSCDDRGCNNGTLAMGWGSGTANFPYLITPDAALQARALRDGTRYESVLTNYALEKTETLVSQANATAIVFVNANSGEGYTRVDGNMGDRKNLTLWGNGDDLIKNVSSWCSNTIVVIHSTGPVLLTDWYNSPNITAILWAGLPGQESGNSLVDVLYGDVNPAGRTPFTWGATRESYGVDVMYKPNNDDGAPQQDFDEGVFIDYRYFDREDTPVIYEFGHGLSYTTFNYSNLKIEKHNAEPYKPTTGKTTPAPTFGQDDAYGYTGSEKYLFPPSPFRRITDYIYPYLNSTDPHEASLDPHYGQTAEQFLPPGALRADEQPLLRASGQHQPGGNPGLWDVLYTITADITNMGSVTGDEVPQLYVSLGGPQDPKVVLRGFDRLREIGPGETRQFMARLTRRDLSNWDPVLQDWVVGGHKKTVFVGKSSRKLELSAELP
Km (purified protein; pH 5.5, 60 °C, pH 5.5, 60.0 °C): 900 µM | Vmax (purified protein; pH 5.5, 60 °C, pH 5.5, 60.0 °C): 46.2 µmol/min/mg | kcat (purified protein; pH 5.5, 60 °C, pH 5.5, 60.0 °C): 73.1 s⁻¹ | kcat/Km (purified protein; pH 5.5, 60 °C, pH 5.5, 60.0 °C): 81600 M⁻¹ s⁻¹

B2: HiBgl3A (Mycothermus thermophilus; Y529T) (protein)
chain: B1 chain with Y509T
Km (purified protein; optimal conditions): 2450 µM | Vmax (purified protein; optimal conditions): 43 µmol/min/mg | kcat (purified protein; optimal conditions): 68.2 s⁻¹ | kcat/Km (purified protein; optimal conditions): 27800 M⁻¹ s⁻¹

B3: HiBgl3B (Mycothermus thermophilus; I311F) (protein)
chain: RVVEPRDPVPQGYHAASYYPAPHGGWVSSWREAYEKAYALVSQMTLAEKVNITSGVGIYMGPCVGNTGSVDRLGFPQLCLQDSALGVASADNVTAFPAGITTGATWDKQLMYARGVAIGKEFRGKGANIHLGPSVGPLGRKPLGGRNWEGFGSDPVLQGKAAALHIRGVQEQGIIATIKHLVGNEQEMYRMYHIFQEGYSANIDDRTLHELYLWPFAEAVRAGVGAAMTAYNAVNGSACSQNSYLINGILKDELGFQGLVMSDWLSHISGVGSALAGLDLNMPGDTNFPLFGNSLWQYELTRAVLNGSVPVDRLNDMATRVVATWYKFGQDKNHPRPNFSSNTRSRDGPLYPGALFSPSGQVNWFVNVQEDHYLVARQVAQDAITLLKNNDSLLPLDAGDLTGGKLSVFGTDAQVNPDGPNSCLARACNKGTLGMGWGSGIADYPYMDDPIGAIRKRVPDVKFYNTDSFPWFFGTPENDEVAMVFISSDSGENTLTVEGNHGDRDSAKLRAWHDGDKLVQKVAEKFKNVIVVVHTVGPLDLEPWIELPSVKAVLFAHLPGQEAGESLTNVLFGDVSPSGHLPYSITRKASDLPDSIANLKGFTWGQVQDTYSEGLYIDYRYLQKHSIQPRFAFGHGLSYTNFSFTNATIRAITTPLSVTPPAPPATRPASVVAKYSTDIPPASEAYEPAGFSRIWRYLYPWLSKSDADAAHAIGTSKSKTYPYPPGYSTVQRASFPPAGGGEGGNPALWDVAYEVTVRVTNTGKRPGKASAQLYLQFPEGIEYDTPVLQLRDFEKTKELQPGESQELKLTLTRKDVSVWDVRRQNWVVPTAIDDKKGFTAWVGEASDKLKVACYTGEGRCVEGAKQPV
Km (purified protein; optimal conditions): 2420 µM | Vmax (purified protein; optimal conditions): 6.07 µmol/min/mg | kcat (purified protein; optimal conditions): 9.61 s⁻¹ | kcat/Km (purified protein; optimal conditions): 3980 M⁻¹ s⁻¹

B4: HiBgl3B (Mycothermus thermophilus; T517Y) (protein)
chain: B3 chain with F288I, T494Y
Km (purified protein; optimal conditions): 2370 µM | Vmax (purified protein; optimal conditions): 9.51 µmol/min/mg | kcat (purified protein; optimal conditions): 15.1 s⁻¹ | kcat/Km (purified protein; optimal conditions): 6360 M⁻¹ s⁻¹

B5: HiBgl3B (Mycothermus thermophilus) (protein)
chain: B3 chain with F288I
Km (purified protein; [1]): 1510 µM | Vmax (purified protein; [1]): 25.5 µmol/min/mg | kcat (purified protein; [1]): 40.4 s⁻¹ | kcat/Km (purified protein; [1]): 26800 M⁻¹ s⁻¹

B6: HiBgl3B (Mycothermus thermophilus; I81W) (protein)
chain: B3 chain with I58W, F288I
Km (purified protein; optimal conditions): 1990 µM | Vmax (purified protein; optimal conditions): 2.03 µmol/min/mg | kcat (purified protein; optimal conditions): 3.21 s⁻¹ | kcat/Km (purified protein; optimal conditions): 1610 M⁻¹ s⁻¹

B7: HiBgl3B (Mycothermus thermophilus; I311F/I81W/T517Y) (protein)
chain: B3 chain with I58W, T494Y
Km (purified protein; optimal conditions): 2480 µM | Vmax (purified protein; optimal conditions): 2.68 µmol/min/mg | kcat (purified protein; optimal conditions): 4.24 s⁻¹ | kcat/Km (purified protein; optimal conditions): 1710 M⁻¹ s⁻¹

B8: HiBgl3C (Mycothermus thermophilus) (protein)
chain: T2 sequence (A0A191KCR0 18-733)
Km (purified protein; [2]): 200 µM | kcat/Km (purified protein; [2]): 1.56e+06 M⁻¹ s⁻¹
